# Assay: yeast display, Sf9 membrane polyspecificity reagent, FACS + sequencing; frameworks hold sequencing errors
# In short: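 Nanobodies from a synthetic yeast display library (Saccharomyces cerevisiae BJ5465), induced 36–48 hours with galactose, were stained 1 hour at 4 °C with 10% biotinylated, detergent-solubilized Sf9 membrane reagent, enriched on streptavidin microbeads, then FACS-sorted. Anti-HA (expression) and streptavidin (reagent binding) fluorescence set low and high (top ~1%) gates. Polyreactivity labels come from the gate of origin. Genes were colony-PCR amplified, MiSeq 2 × 250 sequenced and filtered by CDR length.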
row,Sequence,polyreactivity (PSR sort gate)
1,QVQLVESGGGLVQAGGRLRLSCAASGRIFPKNTMGWNRPAPGKERELVAAINWNGGRTYYADSVKGRYTISRDNAKTTVYLQMNSLKPEDTAVYYCAKDGYWVFDYWGQGTQVTVSS,low polyreactivity
2,QVQLVESGGGLVQAGGRLRLSCAASGRIFTYNAMGWYRQAPGKEREFVAAISSGGSTTYADSVKGRFTISRDNAKNTVYLQMNSLKPEDTAVYYCAAGGCRFAIIEYEYWGQGTQVTVSS,low polyreactivity
3,QVQLVESGGGLVQAGGRLRLSCAASGRIFVYYAMGWYRQAPGKERELVAAINAGGSTNYADSVKGRFTISRDNAKNTVYLQMNSLKPEDTAVYYCATDRYWWSGFDYWGQGTQVTVSS,high polyreactivity
4,QVQLVESGGGLVQAGGRLRLSCAASGRIFYHNAMGWYRQAPGKERELVAAITWSGVSTYYADSVKGRFTISRDNAKNTVYLQMNSLKPEDTAVYYCAKRGRWDWDFNYWGQGTQVTVSS,high polyreactivity
5,QVQLVESGGGLVQAGGRLRLSCAASGRTFANYAMGWYRQAPGKERELVAAITGSGSTNYADSVKGRFTISRDNAKNTVYLQMNSLKPEDTAVYYCAAAYKPYRCLYYPNSIDFGYWGQGTQVTVSS,high polyreactivity
6,QVQLVESGGGLVQAGGRLRLSCAASGRTFATNAMGWYRQAPGKERELVADISGGGSTYYADSVKGRFTISRDNAKNTVYLQMNSLKPEDTAVYYCAARDYHWFQWYDYWGQGTQVTVSS,low polyreactivity
7,QVQLVESGGGLVQAGGRLRLSCAASGRTFFQYAMGWYRQAPGKERELVAAIRCSDSTYYADSVKGRFTISRDNAKNTVYLQMNSLKPEDTAVYYCAVRAYREFLPIVYKWWWERDHWGQGTQVTVSS,low polyreactivity
8,QVQLVESGGGLVQAGGRLRLSCAASGRTFGSYAMGWYRQAPGKERELVAAISWSDGSTYYADSVKGRFTISRDNAKNTVYLQMNSLKPEDTAVYYCHWAKWYRYGGYRSRFDYWGQGTQVTVSS,low polyreactivity
9,QVQLVESGGGLVQAGGRLRLSCAASGRTFGTYAKGWSRQATGKERELVAAIRSNAGSTYYADSVKGRFTISRDNAKITVYLQMNSLKPEDTAVYYCAKSYRSSRRYNYWGQGTQVNVSS,high polyreactivity
10,QVQLVESGGGLVQAGGRLRLSCAASGRTFGYYTMGWYRQAPGKERELVATIRWSGGSTYADSVKGRFTISRDNANNTVYLQMNSLKPEDTAVYYCARRLFSWGAPFGYWGQGTQVTVSS,high polyreactivity
11,QVQLVESGGGLVQAGGRLRLSCAASGRTFRRYTMGWYRQAPGKERELVAAISRNGGSTYYADSVKGRFTISRDNAKNTVYLQMNSLKPEDTAVYYCAALRYAYIADYDYWGQGTQVTVSS,high polyreactivity
12,QVQLVESGGGLVQAGGRLRLSCAASGRTFTYNAMGWYRQAPGKERELFAAISNTGSTYYADSLKGRFTISRDNAKNTVYLQMNSLKPEDTAVYYCAADRAEFRQDDDPGESNYWGQGTQVTVSS,low polyreactivity
13,QVQLVESGGGLVQAGGRLRLSCAASGRTFYYNAMGWYRQAPGKERELVAAISSSGGRTYYADSVKGRFTISRDNAKNTVYLQMNSLKPEDTAVYYCAALTNARGFDYWGQGTQVTVSS,high polyreactivity
14,QVQLVESGGGLVQAGGRLRLSCAASGSIFFDYAMGWYRQAPGKERELVAAINSGGTTNYADSVKGRFTISRDNAKNTVYLQMKQPETGRYRGLLLQRLPGYIRWYRWYDYWGQGTQVTVSS,low polyreactivity
15,QVQLVESGGGLVQAGGRLRLSCAASGSIFFGNVIGWYRQAPGKEREWVAAINTDGRTYYADSVKGRFTISRDNAKNTVYLQMNSLKPEDTAVYYCAKAVWWSLPAQKSYLYYYWGQGTQVTVSS,high polyreactivity
16,QVQLVESGGGLVQAGGRLRLSCAASGSIFGGNDMGWYRQPPGKERELVAAITSSGGSTYYADSVKGRFTISRDNAKNTVYLQMYSLKPEDTAVYYCNADYYGPYRDYGYWGQGTQVTVSS,low polyreactivity
17,QVQLVESGGGLVQAGGRLRLSCAASGSIFINNTMGWYRQAPGKERELVAAISITGGSTYYADSVKGRFTISRDNAKNTVYLQMNSLKPEDTAVYYCAADPLQLYDYNYWGQCTQVTVSS,low polyreactivity
18,QVQLVESGGGLVQAGGRLRLSCAASGSIFNSYDMGWYRQAPGKERELVAAINSGGSTYYADSVKGRFTISRDNAKNTDYFQMNSLKPEDTAVYYCAARVVIRYPYTKGYYYWGQGTQVTVSS,high polyreactivity
19,QVQLVESGGGLVQAGGRLRLSCAASGSIFRVYAMGWYRQAPGKERELVARISRGGRTNYADSVKGRFTISRDNAKNTVYLQMNSLKPEDTAVYYCAADVVSLESYSYQSLGYDYWGQGTQVTVSS,high polyreactivity
20,QVQLVESGGGLVQAGGRLRLSCAASGSIFSSYAMGWYRQAPGKERELVAAITNSGVSTYYADSVKGRFTISRDNAKYTVYLQMNSLKPEVTASITALKTVVRLPTVYTPLLNWYYYWGQGTQVTVSS,low polyreactivity
21,QVQLVESGGGLVQAGGRLRLSCAASGSILVFYARGWYRQAPGKERELVAAITSGASTNYADSVKGRFTISRDNAKNTVYLQMNSLKPEDTAVYYCAAGFQTRTPLNEFDYWGQGTQVTVSS,low polyreactivity

row,Sequence,polyreactivity (PSR sort gate)
1,QVQLVESGGGLVQAGGRLRLSCAASGSISQTNAMGWYRKAPGKERELVAAISGSGGSTYADSVKGRFTISRDNAKNTVYLQMNSLKPEDTAVYYCARDRYYTREWYWYRHDHWGQGTQVTVSS,low polyreactivity
2,QVQLVESGGGLVQAGGRLRLSCAASGSNFTYYAMGWYRKAPGKEREFVAAISRRGGSTYYADSVKGRFTISRDNAKNTVYLQMNSLKPEDTAVYECNARYTGSSLYYWGQGTQLTVSS,high polyreactivity
3,QVQLVESGGGLVQAGGRLRLSCAASGSNFYENAMVWYRQAPGKERELVADITNSGGSTYYADSVKGRFTISRDNAKNTVYLQMNSLIPEDTAVFYFATDVGYFYTVVGGYDYWGQGTQVTVSS,low polyreactivity
4,QVQLVESGGGLVQAGGRLRLSCAASGSTFGDYAMGWYRQAPGKEREFVAAITWSGGSTNYADSVKGRFTISRDYAKNTVYLPMNSLKPEDTAVYYCAKPWYSSGFEYWGQGTQLTVSS,high polyreactivity
5,QVQLVESGGGLVQAGGRLRLSCAASGSTFGTNDMGWYRQAPGKEREFVASIDWSGDSTNYADSVKGRFTISRDNAKNTVYLQMNSLKPEDTADYYCAARVFPQIYYTSYDYWGQGTQVTVSS,high polyreactivity
6,QVQLVESGGGLVQAGGRLRLSCAASGSTFIGNAMGWYRQAPGKERELVAAISRTGGSTYADSVKGRFTISRDNAKNTVYLQMNSLKPEDTAVYYCAAKYYYLYYYWGQGTQVTVSS,high polyreactivity
7,QVQLVESGGGLVQAGGRLRLSCAASGSTFILNAMGWYRQAPGKERELVAAISRSGGNTYYADSVKRRFTISRDNAKNTVYLQMNSLKPADTAVYYCAATRRSHYYYWGQGTQVTVSS,high polyreactivity
8,QVQLVESGGGLVQAGGRLRLSCAASGSTFLNYAMGWYRQAPGKQRELVSSIDSSDGRTYYADSVKGRFTISRDNAKNTVYLQMNSLKPEDTEVYYCAKDSYAVELRPYSKLSSRADGYWGQGTQVTVSS,low polyreactivity
9,QVQLVESGGGLVQAGGRLRLSCAASGSTFPYYAMGWYRQAPGKERELVAVITRGGSTYYADSVKGRFTISRDNAQNTVYLQMNSLKPEDTAVYYCAARYTPGFCYWGQGTQVTVSS,high polyreactivity
10,QVQLVESGGGLVQAGGRLRLSCAASGSTFSWYVMGWYRQAPGKERELVAAITRGGGSTYYADSVKGRFTISRDNAKNTVYLQMNSLKPEDTAVYYCNADSNIPDYDYWGQGTQVTVSS,low polyreactivity
11,QVQLVESGGGLVQAGGRLRLSCAASGSTFSYYAMGWYRQAPGKERELVAAISSRGSSTYYADSVKGRFTISRDNAKNTVYLQMNSLKPQATAVYYCAAVRYSPTKFNYWGQGTQVTVSS,high polyreactivity
12,QVQLVESGGGLVQAGGRLRLSCAASGSTFVTNYMGRYRQAPGKERELVAAISSGTSTNYADSVKGRFTISRDNAKNTVYLQMNSLTREDTPVYYCAADSLKRYDYWGQGTQVTVSS,low polyreactivity
13,QVQLVESGGGLVQAGGRLRLSCAASGSTLDPYAMGLYRQAPGKERELVAAITISGGTTYNADSVKGRFTISRDNAKNTVYLQMNSMKPEDTAVYYCAAEGTYVTLGYYNLDVRYDYWGQGTQVTVSS,low polyreactivity
14,QVQLVESGGGLVQAGGRLRLSCAASGYTFPLYARGWYRQAPGKERELVADINIGGASSYYADSVKGRVTISRDNAKKTVYLQMNSLKPEDTAVYYCAKEYYDGYFPTFDYDYWGQGTQVTVSS,low polyreactivity
15,QVQLVESGGGLVQAGGRLRLSCAATGRTFRTYVMGWYRQGPGKEREMFAAITWSAGRTYYADSVKGRFTISRDNAQNTVYLQMNSLKPEDTAVYYCATLPTYYLRSYGLDYWGQGTQVTVSS,high polyreactivity
16,QVQLVESGGGLVQAGGRLRLSCAATGRTFWENAMGWYRQAPGKERELVAAISGDSGSTYYADSVKGRFTISRDNAKNTVYLQMNSLKPEDTAVYYCAADSDRDDSYPYYYWGQGTQVTVSS,low polyreactivity
17,QVQLVESGGGLVQAGGRLRLSFAASGFTFRYYAMGWYRQAPGKEREFVAAIRSSGTTTSYADSVKGRFTISRDNAKNTVYLHMKSLKPEDTAVYYCAKVSSSSYVEHRYGYWGQGTQVTVSS,high polyreactivity
18,QVQLVESGGGLVQAGGRLRLSWAASGSTFFGNAMGWYRQAPGKERELVAVITKGGGSTYYADSVKGRFTISRDNAKNTVYLQMNSLKPEDTAVYYCAKTYTSGYHRRYDYWGQGTQVTVSS,low polyreactivity
19,QVQLVESGGGLVQAGGRLRLTCAASGRIFYRYAMGWYRQAPGKERELVASITRSGITHYADSVKGRFTISRDNAKNTVYLQMNSLKPEDTAVYYCNARRGSPAPYDYWGKGTQVTVSS,high polyreactivity
20,QVQLVESGGGLVQAGGRLSLSCAASGSTFSPYAMGWYRQAPGKEREFVADISWPGGTTYYADSVKGRFTISRDNAKNTVYLQMNSLKPEDTAVYYCAVTYWDYTFQITYEYWGQGTQVTVSS,low polyreactivity

# — the nanobody polyreactivity screen of Harvey et al. (2022)
